Laboratory results reported in US20140087995A1 (published 2014).
Numbered stars: 1 amine (or outer) side, 2 acyl side, 3 side chain; on linkers, the order of the positions; unused ones are H or OH. Bridge positions count the residues as written; N and C are the ends. Side chains are listed from the residue outwards. Ends that are not written are not given here. * marks the point of attachment. C20 diacid = O=C(O)CCCCCCCCCCCCCCCCCCC(=O)*; γGlu = O=C(O)[C@H](CCC(=O)[*:2])N[*:1]

T1: human amylin receptor (amylin 3(a) receptor: human calcitonin receptor with RAMP-3) (human, UniProt P30988 25-474; O60896 24-148)
T1 construct: whole, on cells; also called hAmylin-R; hAmylinR
T1 sequence (looked up) 1: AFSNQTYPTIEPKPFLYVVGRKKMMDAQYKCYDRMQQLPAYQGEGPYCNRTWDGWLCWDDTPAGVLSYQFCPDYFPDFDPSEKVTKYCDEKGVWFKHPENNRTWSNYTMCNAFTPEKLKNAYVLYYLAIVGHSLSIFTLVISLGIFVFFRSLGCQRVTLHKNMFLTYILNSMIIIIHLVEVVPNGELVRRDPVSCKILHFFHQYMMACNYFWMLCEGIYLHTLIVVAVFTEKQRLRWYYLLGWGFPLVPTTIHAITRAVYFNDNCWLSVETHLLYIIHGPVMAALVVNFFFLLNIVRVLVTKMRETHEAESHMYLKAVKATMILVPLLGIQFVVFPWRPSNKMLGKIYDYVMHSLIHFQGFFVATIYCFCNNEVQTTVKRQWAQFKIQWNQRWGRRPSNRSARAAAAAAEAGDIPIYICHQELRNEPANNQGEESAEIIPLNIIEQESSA
T1 sequence (looked up) 2: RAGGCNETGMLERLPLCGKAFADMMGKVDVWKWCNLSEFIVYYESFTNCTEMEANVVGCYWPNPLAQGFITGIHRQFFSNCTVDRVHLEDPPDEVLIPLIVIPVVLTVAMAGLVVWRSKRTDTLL


Biological target: T1, human amylin receptor (amylin 3(a) …)
Experiment: SPA displacement of 125I-rat amylin, hAmylin 3(a) receptor membranes
Procedure, shortened: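 SPA beads + BHK amylin 3(a)/CRE-luc membranes, 35 ng/μL final; buffer 50 mM Hepes pH 7.4, 1 mM CaCl2, 5 mM MgCl₂, 0.1% OA, 0.02% Tween20. 120 min, 25° C, shaken; scintillation count. IC₅₀ by one-site binding competition fit, taken as receptor affinity.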

Row | IC50 | Binder
1 | 0.833 nM | K([γGlu-γGlu-C20 diacid])CNTATCATQRLANFLRHSSPNFGAIPSSTNVGHNTY-NH2 (disulfide 2-7; N-terminus assumed; SMILES CC[C@H](C)[C@H](NC(=O)[C@H](C)NC(=O)CNC(=O)[C@H](Cc1ccccc1)NC(=O)[C@H](CC(N)=O)NC(=O)[C@@H]1CCCN1C(=O)[C@H](CO)NC(=O)[C@H](CO)NC(=O)[C@H](Cc1c[nH]cn1)NC(=O)[C@H](CCCNC(=N)N)NC(=O)[C@H](CC(C)C)NC(=O)[C@H](Cc1ccccc1)NC(=O)[C@H](CC(N)=O)NC(=O)[C@H](C)NC(=O)[C@H](CC(C)C)NC(=O)[C@H](CCCNC(=N)N)NC(=O)[C@H](CCC(N)=O)NC(=O)[C@@H](NC(=O)[C@H](C)NC(=O)[C@@H]1CSSC[C@H](NC(=O)[C@@H](N)CCCCNC(=O)CC[C@H](NC(=O)CC[C@H](NC(=O)CCCCCCCCCCCCCCCCCCC(=O)O)C(=O)O)C(=O)O)C(=O)N[C@@H](CC(N)=O)C(=O)N[C@@H]([C@@H](C)O)C(=O)N[C@@H](C)C(=O)N[C@@H]([C@@H](C)O)C(=O)N1)[C@@H](C)O)C(=O)N1CCC[C@H]1C(=O)N[C@@H](CO)C(=O)N[C@@H](CO)C(=O)N[C@H](C(=O)N[C@@H](CC(N)=O)C(=O)N[C@H](C(=O)NCC(=O)N[C@@H](Cc1c[nH]cn1)C(=O)N[C@@H](CC(N)=O)C(=O)N[C@H](C(=O)N[C@@H](Cc1ccc(O)cc1)C(N)=O)[C@@H](C)O)C(C)C)[C@@H](C)O, also called 86; compound 86)
2 | 0.75 nM | K([γGlu-γGlu-C20 diacid])CNTATCATQRLAEFLRHSSPNFGAIPSSTNVGRNTY-NH2 (disulfide 2-7; N-terminus assumed; SMILES CC[C@H](C)[C@H](NC(=O)[C@H](C)NC(=O)CNC(=O)[C@H](Cc1ccccc1)NC(=O)[C@H](CC(N)=O)NC(=O)[C@@H]1CCCN1C(=O)[C@H](CO)NC(=O)[C@H](CO)NC(=O)[C@H](Cc1c[nH]cn1)NC(=O)[C@H](CCCNC(=N)N)NC(=O)[C@H](CC(C)C)NC(=O)[C@H](Cc1ccccc1)NC(=O)[C@H](CCC(=O)O)NC(=O)[C@H](C)NC(=O)[C@H](CC(C)C)NC(=O)[C@H](CCCNC(=N)N)NC(=O)[C@H](CCC(N)=O)NC(=O)[C@@H](NC(=O)[C@H](C)NC(=O)[C@@H]1CSSC[C@H](NC(=O)[C@@H](N)CCCCNC(=O)CC[C@H](NC(=O)CC[C@H](NC(=O)CCCCCCCCCCCCCCCCCCC(=O)O)C(=O)O)C(=O)O)C(=O)N[C@@H](CC(N)=O)C(=O)N[C@@H]([C@@H](C)O)C(=O)N[C@@H](C)C(=O)N[C@@H]([C@@H](C)O)C(=O)N1)[C@@H](C)O)C(=O)N1CCC[C@H]1C(=O)N[C@@H](CO)C(=O)N[C@@H](CO)C(=O)N[C@H](C(=O)N[C@@H](CC(N)=O)C(=O)N[C@H](C(=O)NCC(=O)N[C@@H](CCCNC(=N)N)C(=O)N[C@@H](CC(N)=O)C(=O)N[C@H](C(=O)N[C@@H](Cc1ccc(O)cc1)C(N)=O)[C@@H](C)O)C(C)C)[C@@H](C)O, also called 88; compound 88)
3 | 1.13 nM | K([γGlu-γGlu-C20 diacid])CNTATCATQRLADFLRHSSNPFGAPLSSTNVGSDTY-NH2 (disulfide 2-7; N-terminus assumed; SMILES CC(C)C[C@H](NC(=O)[C@H](CCCNC(=N)N)NC(=O)[C@H](CCC(N)=O)NC(=O)[C@@H](NC(=O)[C@H](C)NC(=O)[C@@H]1CSSC[C@H](NC(=O)[C@@H](N)CCCCNC(=O)CC[C@H](NC(=O)CC[C@H](NC(=O)CCCCCCCCCCCCCCCCCCC(=O)O)C(=O)O)C(=O)O)C(=O)N[C@@H](CC(N)=O)C(=O)N[C@@H]([C@@H](C)O)C(=O)N[C@@H](C)C(=O)N[C@@H]([C@@H](C)O)C(=O)N1)[C@@H](C)O)C(=O)N[C@@H](C)C(=O)N[C@@H](CC(=O)O)C(=O)N[C@@H](Cc1ccccc1)C(=O)N[C@@H](CC(C)C)C(=O)N[C@@H](CCCNC(=N)N)C(=O)N[C@@H](Cc1c[nH]cn1)C(=O)N[C@@H](CO)C(=O)N[C@@H](CO)C(=O)N[C@@H](CC(N)=O)C(=O)N1CCC[C@H]1C(=O)N[C@@H](Cc1ccccc1)C(=O)NCC(=O)N[C@@H](C)C(=O)N1CCC[C@H]1C(=O)N[C@@H](CC(C)C)C(=O)N[C@@H](CO)C(=O)N[C@@H](CO)C(=O)N[C@H](C(=O)N[C@@H](CC(N)=O)C(=O)N[C@H](C(=O)NCC(=O)N[C@@H](CO)C(=O)N[C@@H](CC(=O)O)C(=O)N[C@H](C(=O)N[C@@H](Cc1ccc(O)cc1)C(N)=O)[C@@H](C)O)C(C)C)[C@@H](C)O, also called compound 3)
4 | 1.18 nM | K([γGlu-γGlu-C20 diacid])CNTATCATQRLADFLRHSSPNFGAPLSSTNVGSDTY-NH2 (disulfide 2-7; N-terminus assumed; SMILES CC(C)C[C@H](NC(=O)[C@H](CCCNC(=N)N)NC(=O)[C@H](CCC(N)=O)NC(=O)[C@@H](NC(=O)[C@H](C)NC(=O)[C@@H]1CSSC[C@H](NC(=O)[C@@H](N)CCCCNC(=O)CC[C@H](NC(=O)CC[C@H](NC(=O)CCCCCCCCCCCCCCCCCCC(=O)O)C(=O)O)C(=O)O)C(=O)N[C@@H](CC(N)=O)C(=O)N[C@@H]([C@@H](C)O)C(=O)N[C@@H](C)C(=O)N[C@@H]([C@@H](C)O)C(=O)N1)[C@@H](C)O)C(=O)N[C@@H](C)C(=O)N[C@@H](CC(=O)O)C(=O)N[C@@H](Cc1ccccc1)C(=O)N[C@@H](CC(C)C)C(=O)N[C@@H](CCCNC(=N)N)C(=O)N[C@@H](Cc1c[nH]cn1)C(=O)N[C@@H](CO)C(=O)N[C@@H](CO)C(=O)N1CCC[C@H]1C(=O)N[C@@H](CC(N)=O)C(=O)N[C@@H](Cc1ccccc1)C(=O)NCC(=O)N[C@@H](C)C(=O)N1CCC[C@H]1C(=O)N[C@@H](CC(C)C)C(=O)N[C@@H](CO)C(=O)N[C@@H](CO)C(=O)N[C@H](C(=O)N[C@@H](CC(N)=O)C(=O)N[C@H](C(=O)NCC(=O)N[C@@H](CO)C(=O)N[C@@H](CC(=O)O)C(=O)N[C@H](C(=O)N[C@@H](Cc1ccc(O)cc1)C(N)=O)[C@@H](C)O)C(C)C)[C@@H](C)O, also called compound 1)
5 | 0.697 nM | K([γGlu-γGlu-C20 diacid])CNTATCATQRLADFLRHSSPNFGAIPSSTNVGSRTY-NH2 (disulfide 2-7; N-terminus assumed; SMILES CC[C@H](C)[C@H](NC(=O)[C@H](C)NC(=O)CNC(=O)[C@H](Cc1ccccc1)NC(=O)[C@H](CC(N)=O)NC(=O)[C@@H]1CCCN1C(=O)[C@H](CO)NC(=O)[C@H](CO)NC(=O)[C@H](Cc1c[nH]cn1)NC(=O)[C@H](CCCNC(=N)N)NC(=O)[C@H](CC(C)C)NC(=O)[C@H](Cc1ccccc1)NC(=O)[C@H](CC(=O)O)NC(=O)[C@H](C)NC(=O)[C@H](CC(C)C)NC(=O)[C@H](CCCNC(=N)N)NC(=O)[C@H](CCC(N)=O)NC(=O)[C@@H](NC(=O)[C@H](C)NC(=O)[C@@H]1CSSC[C@H](NC(=O)[C@@H](N)CCCCNC(=O)CC[C@H](NC(=O)CC[C@H](NC(=O)CCCCCCCCCCCCCCCCCCC(=O)O)C(=O)O)C(=O)O)C(=O)N[C@@H](CC(N)=O)C(=O)N[C@@H]([C@@H](C)O)C(=O)N[C@@H](C)C(=O)N[C@@H]([C@@H](C)O)C(=O)N1)[C@@H](C)O)C(=O)N1CCC[C@H]1C(=O)N[C@@H](CO)C(=O)N[C@@H](CO)C(=O)N[C@H](C(=O)N[C@@H](CC(N)=O)C(=O)N[C@H](C(=O)NCC(=O)N[C@@H](CO)C(=O)N[C@@H](CCCNC(=N)N)C(=O)N[C@H](C(=O)N[C@@H](Cc1ccc(O)cc1)C(N)=O)[C@@H](C)O)C(C)C)[C@@H](C)O, also called 52; compound 52)
6 | 0.411 nM | K([γGlu-γGlu-C20 diacid])CNTATCATQRLADFLRHSSPNFGAIPSSTNVGSDTY-NH2 (disulfide 2-7; N-terminus assumed; SMILES CC[C@H](C)[C@H](NC(=O)[C@H](C)NC(=O)CNC(=O)[C@H](Cc1ccccc1)NC(=O)[C@H](CC(N)=O)NC(=O)[C@@H]1CCCN1C(=O)[C@H](CO)NC(=O)[C@H](CO)NC(=O)[C@H](Cc1c[nH]cn1)NC(=O)[C@H](CCCNC(=N)N)NC(=O)[C@H](CC(C)C)NC(=O)[C@H](Cc1ccccc1)NC(=O)[C@H](CC(=O)O)NC(=O)[C@H](C)NC(=O)[C@H](CC(C)C)NC(=O)[C@H](CCCNC(=N)N)NC(=O)[C@H](CCC(N)=O)NC(=O)[C@@H](NC(=O)[C@H](C)NC(=O)[C@@H]1CSSC[C@H](NC(=O)[C@@H](N)CCCCNC(=O)CC[C@H](NC(=O)CC[C@H](NC(=O)CCCCCCCCCCCCCCCCCCC(=O)O)C(=O)O)C(=O)O)C(=O)N[C@@H](CC(N)=O)C(=O)N[C@@H]([C@@H](C)O)C(=O)N[C@@H](C)C(=O)N[C@@H]([C@@H](C)O)C(=O)N1)[C@@H](C)O)C(=O)N1CCC[C@H]1C(=O)N[C@@H](CO)C(=O)N[C@@H](CO)C(=O)N[C@H](C(=O)N[C@@H](CC(N)=O)C(=O)N[C@H](C(=O)NCC(=O)N[C@@H](CO)C(=O)N[C@@H](CC(=O)O)C(=O)N[C@H](C(=O)N[C@@H](Cc1ccc(O)cc1)C(N)=O)[C@@H](C)O)C(C)C)[C@@H](C)O, also called compound 2)
